# Data taken from the DeepSol protein solubility set.
# Assay: soluble on expression in E. coli; label from the status in PepcDB or PDB records
row,Sequence,soluble on expression in E. coli
1,MGSDKIHHHHHHMMKRFWFFLESYVFVWTNHEAVLLYDSLSGKGVTWKLTDPVRTIVMELMKKENLYCMELTEDDLNVPEVTEFVSEIRRNFIGDLYSQEEFRQKPLVIVPEVSVNENLENDVETMNNLELFGQKIVNNLRVVTMRLTGECSINCRYCQTVDKQIVWCRKQDNRLSYNEICRLLEQLKHTPVTLINFVGGNVLSYPFLDELLNELKKHSFGKCFYLYYKQSVDYEQIRAKLLNDPSVSIKFLIDYPVNEYAISACVALPNERVEYCFAVTSEEEFQEVSRIIDVYKLKANIYPFYTIDNLDFFEKYVFQTLEDVMALCRTKKDIFAHQLVNTHFFGTLYIDCDGKVYPNFNSKSIGTIDGYVKDWVFQEMKQGKMWHWTRDSLPACKECLYKYLCPSPSNYELVIGKPNLCHVKPWKC,not soluble
2,SLSERVRTYWIIIELKHKAREKPYDSKSLRTALQKEITTRYQLDPKFITSILYENNVITIDLVQNSSQKTQNDVDIADVAYYFEKDVKGESLFHSKKMDLTVNGEQLDLDPGQTLIYYVDEKAPEFSEG,soluble
3,MTDLNKHIKQAQTQRKQLLEESRELHREKLLVQAENRFFLEYLTNKTEEYTEQPEKVWNSYLQKSGEIERRRQESASRYAEQISVLKTALLQKENIQSSLKRKLQAMRDIAILKEKQEKEIQTLQEETKKVQAETASKTREVQAQLLQEKRLLEKQLSEPDRRLLGKRKRRELNMKAQALKLAAKRFIFEYSCGINRENQQFKKELLQLIEQAQKLTATQSHLENRKQQLQQEQWYLESLIQARQRLQGSHNQCLNRQDVPKTTPSLPQGTKSRINPK,not soluble
4,MRTELLSKLYDDFGIDQLPHTQHGVTSDRLGKLYEKYILDIFKDIESLKKYNTNAFPQEKDISSKLLKALNLDLDNIIDVSSSDTDLGRTIAGGSPKTDATIRFTFHNQSSRLVPLNIKHSSKKKVSIAEYDVETICTGVGISDGELKELIRKHQNDQSAKLFTPVQKQRLTELLEPYRERFIRWCVTLRAEKSEGNILHPDLLIRFQVIDREYVDVTIKNIDDYVSDRIAEGSKARKPGFGTGLNWTYASGSKAKKMQFKG,soluble
5,MGSDKIHHHHHHMSADIVFDRGSPSDIDEIKTFTSNTWKVGYYTDLYSKLADTGTMDDYVDKVIERWVNDGSVYVLRVSGRPVATIHMEKLPDGSVMLGGLRVHPEYRGSRLGMSIMQETIQFLRGKTERLRSAVYSWNEPSLRLVHRLGFHQVEEYPIYTFQGGSTAVPALKPVNERYAGRWRCFFIDWKYMCSDDPDIIHEEYSNNLIVDGSTFVYFDIYEGGIDLFVNDSDDASSFIEKYRSMNGRITFYVRKALANGLPYVPASSLTVWEYRY,not soluble
6,MYAYDIYEPIGRKDGEIFPVIFALHGFGGDELDMAGRLELLMDRFVVVSMRGDVEYGPTYGFYHMVTEGDPNAREVDYTSLRVAEFIDEVCNDYVSIDKNQIFLVGFDQGAVLTISIMQSYGGQYKAAALLSGRLPHYLEERPANLMLKDKRIFIGHGIEDAVIQIAEAEEIAQFFQKMGCNVEKHSYFVGHNVNEAEEDDLYSWFESFLP,not soluble
7,MKIGFIGTGSMGTILIESFLESSALTAEQIVITNRTQEKADALARRYPGLSVVDRPEEVVQQTDCFFVCVKPMQFHRVLMDIRPHCSANKLLVSITSPISIAQLENSVDCKVARAIPSILNRACAGSTLVSFSERCLEEDRSFLCGLLGTISEPLLIEEKITRVSSDIVSCGPAFFSYLTQRFIEAAVRQTAISEEDATALATEMLIGIGKLLDQELYTLPSLQKRVCVPGGITGEGIRVLEEDVGHMFDRLFQKTHQKYYHEQEKISSQLTLKGMAGDPNSLEHHHHHH,not soluble
8,MSTELIAAVEAADSAEGLVRAVAALSAARTDAAIPTLISVLAFNNPGAAVVAVDGLIQLGSPAAQAILNNLDDYNYGARAWALRALAGIGEPAALPLLLSAAREDFSLSVRRAATYGLGRVRWADLSESDRLAQQQQCYETLKLCLQYDPEWVVRYAAAAALETLAPAATQLQSAIAETLNRQAHSDEERAVQARSRLAERRLAGGVLEHHHHHH,soluble
9,SFGVIQKEERFNEVFLNYFKENKIEIAHAITKLFPFLESLRDHSFITDKIYADSYEACRNSVPIVKVVYNVLSHLERLSDSSFLWALFNRVNLKEYPALREIHKSLGTELQDRYSPQKCKQEEQKLATVHPSYEQGTNLCTHEKWAQPCFVKQDNLQEPEIQQNQVDEIIVISSESSECSDEDEEDQALGTGLRRQMNKEAEDSAPHRRSRT,soluble
10,MGSSHHHHHHSSGLVPRGSHMAVSGPDDYLQHSIVPTMHYQDSLPRLPIPKLEDTMKRYLNAQKPLLDDSQFRRTEALCKNFETGVGKELHAHLLAQDKQNKHTSYISGPWFDMYLTARDSIVLNFNPFMAFNPDPKSEYNDQLTRATNLTVSAVRFLKTLQAGLLEPEVFHLNPSKSDTDAFKRLIRFVPPSLSWYGAYLVNAYPLDMSQYFRLFNSTRIPRPNRDELFTDTKARHLLVLRKGHFYVFDVLDQDGNIVNPLEIQAHLKYILSDSSPVPEFPVAYLTSENRDVWAELRQKLIFDGNEETLKKVDSAVFCLCLDDFPMKDLIHLSHTMLHGDGTNRWFDKSFNLIVAEDGTAAVHFEHSWGDGVAVLRFFNEVFRDSTQTPAITPQSQPAATNSSASVETLSFNLSGALKAGITAAKEKFDTTVKTLSIDSIQFQRGGKEFLKKKQLSPDAVAQLAFQMAFLRQYGQTVATYESCSTAAFKHGRTETIRPASIFTKRCSEAFVRDPSKHSVGELQHMMAECSKYHGQLTKEAAMGQGFDRHLYALRYLATARGLNLPELYLDPAYQQMNHNILSTSTLNSPAVSLGGFAPVVPDGFGIAYAVHDDWIGCNVSSYSGRNAREFLHCVQKCLEDIFDALEGKAIKT,soluble
11,SYLGSEFDNVELKDLANVLSFGEAKLGDNGQKFNFLFHTASSNVWVPSIKCTSESCESKNHYDSSKSKTYEKDDTPVKLTSKAGTISGIFSKDLVTIGKLSVPYKFIEMTEIVGFEPFYSESDVDGVFGLGWKDLSIGSIDPYIVELKTQNKIEQAVYSIYLPPENKNKGYLTIGGIEERFFDGPLNYEKLNHDLMWQVDLDVHFGNVSSKKANVILDSATSVITVPTEFFNQFVESASVFKVPFLSLYVTTCGNTKLPTLEYRSPNKVYTLEPKQYLEPLENIFSALCMLNIVPIDLEKNTFVLGDPFMRKYFTVYDYDNHTVGFALAKNL,soluble
12,FSDISSLQRFVKFSQSDWLVEMLAQERFTSHFQPIVSMKNTSEIYGYEALLRGLDEQGNLIPPQPIVELATEAGLLPQLDRIARLSTIAQFSSHQVSGQIFINFAPTAVYDPASCLKSTVEAIDQAGISHERVVFEVVESDSPQDLDHLKAVLKYYRDAGFSIALDDLGSGYSSLNLLHQLRPDFIKLDMELIRDVHQDLYKASITEKLLEIAQKLNIRTVAEGIECIEELNWVQERGATFAQGYLIAKP,not soluble
13,GPGSMDLLGSQIAAALEEGSRKRKRDVEEGCSALVSHVNSTLDVITTDVRNTLTEQHCEMEERVNRLMKMAGDFATAVDTWQKKASDSVCAVESQQQLLWELLQDVEKRAQERKKEMLKRQEQRMEELRTMLLERIQKAEASMQL,not soluble
14,MGSDKIHHHHHHMTKNNEAGWNLDNSYATLPHSFYTEIPPTPVSSPELVKLNHSLAISLGFNPEELKKETEIAIFAGNALPEGAHPLAQAYAGHQFGHFNMLGDGRALLIGEQITPSGKRFDIQLKGSGPTPYSRRGDGRAALGPMLREYIISEAMYALDIPTTRSLAVVTTGEPTYRETKLPGAILTRVASSHIRVGTFQYAAARGSIEDLQSLADYTIKRHYPEIEDPENRYTALLQEVIKKQASLIAKWQLVGFIHGVMNTDNITISGETIDYGPCAFMDHYDQGTVFSSIDTQGRYAYGNQPYMAAWDLARLAESLIPILHEDEEEALKIAQDEISKFSVQYENLWFLGMKKKLGLFSNEEQDHSLIEQLLKMMEKYKADYTNTFRSLTLNTLENTPLFDSSEFKEWYKLWQSRLERQDESKENAYEMMKNNNPSIIPRNHRVEEALEAAVTNGDYSVMEKLLEALANPYAYATDQEEYCVTPAPTNRPYRTFCGT,not soluble
15,GPGSMSTSAYRVASLLRQENNKLCSDKEKNTLARLTRDVEAFLDHAADVPPVVMETPYDDGETDLMEVHLSVVAGVLEPCEPASDVTAVDGVFMPTAKNHVAMDRKRVREAQAMLNLLGALSTDCNMPTASVAAATRCRLSLGSGEKADFESDDESIAVFDADELENDTSSSDGESNVHGRPPPRILELN,soluble
16,MFYPDPFDVIIIGGGHAGTEAAMAAARMGQQTLLLTHNIDTLGQMSCNPAIGGIGKGHLVKEVDALGGLMAKAIDQAGIQFRILNASKGPAVRATRAQADRVRYRQAVRTALENQPNLMIFQQAVEDLIVENDRVVGAVTQMGLKFRAKAVVLTVGTFLDGKIHIGLDNYSGGRAGDPPSIPLSRRLRELPLRVGRLKTGTPPRIDARTIDFSVLAQQHGDNPMPVFSFMGNASLHPQQVPCYITHTNEKTHDVIRSNLDRSPMYAGVIEGVGPRYCPSIEDKVMRFADRNQHQIFLEPEGLTSNEIYPNGISTSLPFDVQMQIVRSMQGMENAKIVRPGYAIEYDFFDPRDLKPTLESKFIQGLFFAGQINGTTGYEEAAAQGLLAGLNAARLSADKEGWAPARSQAYLGVLVDDLCTLGTKEPYRMFTSRAEYRLMLREDNADLRLTEIGRELGLVDDERWARFNEKLENIERERQRLKSTWVTPSAEAAAEVNAHLTAPLSREASGEDLLRRPEMTYEKLTTLTPFAPALTDEQAAEQVEIQVKYEGYIARQQDEIEKQLRNENTLLPATLDYRQISGLSNEVIAKLNDHKPASIGQASRISGVTPAAISILLVWLKKQGMLRRSA,not soluble
17,MMKKMAIACALLSSVVASSVWADAASSLKSRLDKVSSFHATFTQKVTDGSGAAVQEGQGDLWVKRPNLFNWHMTQPDESILVSDGKTLWFYNPFVEQATATWLKDATGNTPFMLIARNQASDWQQYNIKQDGDNFVLTPKASNGNLKQFTINVGRDGTIHQFSAVEQDDQRSAYQLKSQQNGAVDPSKFTFTPPQGVTIDDQRK,not soluble
18,MGSDKIHHHHHHMLLAVDHTTHYVFSGPVSHGLQRLRLAPKSTAGQRVVEWSMQFEGARLQAEYDDANNNRVSLISFDPGVSQVTIRCEGLVDTNDEAGIIGKHAGFMPMWQFLEQTDLTRAGARTRALLAALPHEDSTLVKLHALSALVRERVEYASGHTDVDTTAEGALAAGRGVCQDHAHIFIGAARALGIPARYACGYLMMDDRVEQDAGHAWAEAHVESLGWVGFDVSNGISPDARYIRVATGRDYRDAAPVTGIRYGAMDEAMHVRLAVQQQRVEQ,not soluble
19,MAPAEILNGKEISAQIRARLKNQVTQLKEQVPGFTPRLAILQVGNRDDSNLYINVKLKAAEEIGIKATHIKLPRTTTESEVMKYITSLNEDSTVHGFLVQLPLDSENSINTEEVINAIAPEKDVDGLTSINAGRLARGDLNDCFIPCTPKGCLELIKETGVPIAGRHAVVVGRSKIVGAPMHDLLLWNNATVTTCHSKTAHLDEEVNKGDILVVATGQPEMVKGEWIKPGAIVIDCGINYVPDDKKPNGRKVVGDVAYDEAKERASFITPVPGGVGPMTVAMLMQSTVESAKRFLEKFKPGKWMIQ,soluble
20,MTIYMFNNVNLQRQYMIDTIIFDFDGVILNSEPMHFEAIVQVLNQSGINLAYEEYMTHYLGLSDISLFPKILNDKGLAFSSTEIHQVIERKVRVYNELIENSEQLPMTPDLDWFLVRVARQYGKIGICSGSNRHSIIKILEKIHCGRLACYFKTIVSCEDVSLGKPSPEGYLLAAHRLQSKPENCLVIEDSEHGVAAAKAGGMLVAGLLTTLSRDLLANADMIVHDFKELDHLLNSH,not soluble
